Assay results reported in patent US20240018252A1 (Pfizer, published 2024).
Positions count from the first letter of the chain named.

B1: L3.PY/H2.DY (antibody, V domains shown)
VH: EVQLLESGGGLVQPGGSLRLSCAASGFTFGSYAMTWVRQAPGKGLEWVSAIDYSGGNTFYADSVKGRFTISRDNSKNTLYLQMNSLRAEDTAVYYCARVSPIASGMDYWGQGTLVTVSS
VL: EIVLTQSPGTLSLSPGERATLSCRASQSVSSSYLAWYQQKPGQAPRLLIYGASSRATGIPDRFSGSGSGTDFTLTISRLEPEDFAVYYCQHYPYPPSFTFGQGTKVEIK
notes: IgG in the assay
B2: L3.PY/L1.AH/H2.DY (antibody, V domains shown)
VH: B1 VH
VL: B1 VL with S31A, S32H
notes: IgG in the assay
B3: L3.PY/L1.AH/H3.TAQ (antibody, V domains shown)
VH: B1 VH with D52S, Y53G, A97T, S104A, G105Q
VL: B1 VL with S31A, S32H
notes: IgG in the assay
B4: L3.PY/L1.FF/H2.DY (antibody, V domains shown)
VH: B1 VH
VL: B1 VL with S32F, Y33F
notes: IgG in the assay
B5: L3.PY/H3.AE (antibody, V domains shown)
VH: B1 VH with D52S, Y53G, S104A, G105E
VL: B1 VL
notes: IgG in the assay
B6: L3.PY/L1.PH/H2.HA (antibody, V domains shown)
VH: B1 VH with D52S, Y53H, S54A
VL: B1 VL with S31P, S32H
notes: IgG in the assay
B7: L3.PY/L1.PH/H3.TAQ (antibody, V domains shown)
VH: B1 VH with D52S, Y53G, A97T, S104A, G105Q
VL: B1 VL with S31P, S32H
notes: IgG in the assay
B8: L3.PY/L3.KF/H3.YA (antibody, V domains shown)
VH: B1 VH with D52S, Y53G, A103Y, S104A
VL: B1 VL with Q90K, H91F
notes: IgG in the assay
B9: L3.PY/L3.KF/H2.YQ (antibody, V domains shown)
VH: B1 VH with D52S, S54Q
VL: B1 VL with Q90K, H91F
notes: IgG in the assay
B10: L3.PY/H2.LT (antibody, V domains shown)
VH: B1 VH with D52S, Y53L, S54T
VL: B1 VL
notes: IgG in the assay
B11: L3.PY/L3.KF/H2.DY (antibody, V domains shown)
VH: B1 VH
VL: B1 VL with Q90K, H91F
notes: IgG in the assay
B12: L3.PY/L3.KF/H2.LT (antibody, V domains shown)
VH: B1 VH with D52S, Y53L, S54T
VL: B1 VL with Q90K, H91F
notes: IgG in the assay
B13: L3.PY/L1.PH/H3.AE (antibody, V domains shown)
VH: B1 VH with D52S, Y53G, S104A, G105E
VL: B1 VL with S31P, S32H
notes: IgG in the assay
B14: L3.PY/L1.PH/H3.AQ (antibody, V domains shown)
VH: B1 VH with D52S, Y53G, S104A, G105Q
VL: B1 VL with S31P, S32H
notes: IgG in the assay
B15: L3.PY/H2.QL (antibody, V domains shown)
VH: B1 VH with D52S, Y53G, S63Q, V64L
VL: B1 VL
notes: IgG in the assay
B16: L3.PY/L3.KY/H2.LT (antibody, V domains shown)
VH: B1 VH with D52S, Y53L, S54T
VL: B1 VL with Q90K, H91Y
notes: IgG in the assay
B17: L3.PY/H2.HA (antibody, V domains shown)
VH: B1 VH with D52S, Y53H, S54A
VL: B1 VL
notes: IgG in the assay
B18: L3.PY/H2.YQ (antibody, V domains shown)
VH: B1 VH with D52S, S54Q
VL: B1 VL
notes: IgG in the assay
B19: L3.PY/L1.AH/H2.QL (antibody, V domains shown)
VH: B1 VH with D52S, Y53G, S63Q, V64L
VL: B1 VL with S31A, S32H
notes: IgG in the assay
B20: L3.PY/L3.KY/H2.QR (antibody, V domains shown)
VH: B1 VH with D52S, Y53G, S63Q, V64R
VL: B1 VL with Q90K, H91Y
notes: IgG in the assay
B21: L3.PY/L3.KF/H2.QL (antibody, V domains shown)
VH: B1 VH with D52S, Y53G, S63Q, V64L
VL: B1 VL with Q90K, H91F
notes: IgG in the assay
B22: L3.PY/L3.KY/H3.TAQ (antibody, V domains shown)
VH: B1 VH with D52S, Y53G, A97T, S104A, G105Q
VL: B1 VL with Q90K, H91Y
notes: IgG in the assay
B23: L3.PY/L1.FF/H2.HA (antibody, V domains shown)
VH: B1 VH with D52S, Y53H, S54A
VL: B1 VL with S32F, Y33F
notes: IgG in the assay
B24: L3.PY/L1.AH/H2.LT (antibody, V domains shown)
VH: B1 VH with D52S, Y53L, S54T
VL: B1 VL with S31A, S32H
notes: IgG in the assay
B25: L3.PY/L1.FF/H3.YA (antibody, V domains shown)
VH: B1 VH with D52S, Y53G, A103Y, S104A
VL: B1 VL with S32F, Y33F
notes: IgG in the assay
B26: L3.PY/L1.FF/H2.YQ (antibody, V domains shown)
VH: B1 VH with D52S, S54Q
VL: B1 VL with S32F, Y33F
notes: IgG in the assay
B27: L3.PY/L3.KY/H2.DY (antibody, V domains shown)
VH: B1 VH
VL: B1 VL with Q90K, H91Y
notes: IgG in the assay
B28: L3.PY/L3.KF/H3.TAQ (antibody, V domains shown)
VH: B1 VH with D52S, Y53G, A97T, S104A, G105Q
VL: B1 VL with Q90K, H91F
notes: IgG in the assay
B29: L3.PY/L3.KF/H3.AE (antibody, V domains shown)
VH: B1 VH with D52S, Y53G, S104A, G105E
VL: B1 VL with Q90K, H91F
notes: IgG in the assay
B30: L3.PY/L1.FF/H2.LT (antibody, V domains shown)
VH: B1 VH with D52S, Y53L, S54T
VL: B1 VL with S32F, Y33F
notes: IgG in the assay
B31: L3.PY/L1.FF/H2.QL (antibody, V domains shown)
VH: B1 VH with D52S, Y53G, S63Q, V64L
VL: B1 VL with S32F, Y33F
notes: IgG in the assay
B32: L3.PY/L3.KY/H2.YQ (antibody, V domains shown)
VH: B1 VH with D52S, S54Q
VL: B1 VL with Q90K, H91Y
notes: IgG in the assay
B33: L3.PY/H3.YA (antibody, V domains shown)
VH: B1 VH with D52S, Y53G, A103Y, S104A
VL: B1 VL
notes: IgG in the assay
B34: L3.PY/L1.AH/H2.HA (antibody, V domains shown)
VH: B1 VH with D52S, Y53H, S54A
VL: B1 VL with S31A, S32H
notes: IgG in the assay
B35: L3.PY/L1.PH/H2.QR (antibody, V domains shown)
VH: B1 VH with D52S, Y53G, S63Q, V64R
VL: B1 VL with S31P, S32H
notes: IgG in the assay
B36: L3.PY/H3.TAQ (antibody, V domains shown)
VH: B1 VH with D52S, Y53G, A97T, S104A, G105Q
VL: B1 VL
notes: IgG in the assay; also called P6E01 L3PY/H3TAQ
B37: L3.PY/L1.FF/H3.TAQ (antibody, V domains shown)
VH: B1 VH with D52S, Y53G, A97T, S104A, G105Q
VL: B1 VL with S32F, Y33F
notes: IgG in the assay
B38: L3.PY/H2.QR (antibody, V domains shown)
VH: B1 VH with D52S, Y53G, S63Q, V64R
VL: B1 VL
notes: IgG in the assay
B39: L3.PY/H3.AQ (antibody, V domains shown)
VH: B1 VH with D52S, Y53G, S104A, G105Q
VL: B1 VL
notes: IgG in the assay
B40: L3.PY/L3.KY/H2.HA (antibody, V domains shown)
VH: B1 VH with D52S, Y53H, S54A
VL: B1 VL with Q90K, H91Y
notes: IgG in the assay
B41: L3.PY/L3.KF/H3.AQ (antibody, V domains shown)
VH: B1 VH with D52S, Y53G, S104A, G105Q
VL: B1 VL with Q90K, H91F
notes: IgG in the assay
B42: L3.PY/L1.FF/H2.QR (antibody, V domains shown)
VH: B1 VH with D52S, Y53G, S63Q, V64R
VL: B1 VL with S32F, Y33F
notes: IgG in the assay
B43: L3.PY/L3.KY/H2.QL (antibody, V domains shown)
VH: B1 VH with D52S, Y53G, S63Q, V64L
VL: B1 VL with Q90K, H91Y
notes: IgG in the assay
B44: L3.PY/L3.KY/H3.YA (antibody, V domains shown)
VH: B1 VH with D52S, Y53G, A103Y, S104A
VL: B1 VL with Q90K, H91Y
notes: IgG in the assay
B45: L3.PY/L1.FF/H3.AQ (antibody, V domains shown)
VH: B1 VH with D52S, Y53G, S104A, G105Q
VL: B1 VL with S32F, Y33F
notes: IgG in the assay
B46: L3.PY/L1.FF/H3.AE (antibody, V domains shown)
VH: B1 VH with D52S, Y53G, S104A, G105E
VL: B1 VL with S32F, Y33F
notes: IgG in the assay

Key:
[1] = target: T1, human BCMA (human, UniProt Q02223 1-54); assay: SPR, immobilised IgG, 37° C
T1 construct: also called huBCMA; hBCMA
T1 sequence: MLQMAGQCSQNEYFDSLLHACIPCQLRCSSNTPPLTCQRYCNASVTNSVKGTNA

[2] = target: T2, cyBCMA (cynomolgus, UniProt A0A2K5UD97 1-53); assay: SPR, immobilised IgG, 37° C
T2 construct: Soluble analyte in SPR; construct not described; also called cyno BCMA
T2 sequence (A0A2K5UD97 entry or part of it): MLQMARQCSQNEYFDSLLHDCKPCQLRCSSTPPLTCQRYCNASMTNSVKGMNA

Binder	T½ [1] [min]	T½ [2] [min]
B1	8.37	1.87
B2	7.62	2.56
B3	9.68	
B4	4.27	
B5	8.32	2.29
B6	9.99	
B7	5.43	
B8	7.85	
B9	5.18	
B10	8.95	1.53
B11	6.35	
B12	6.05	
B13	8.61	
B14	7.27	
B15	5.31	0.91
B16	12.8	
B17	7.89	1.53
B18	7.41	1.86
B19	7.22	1.21
B20	11.7	
B21	9.26	
B22	17.8	
B23	5.29	

Binder	T½ [1] [min]	T½ [2] [min]
B24	9.38	3.91
B25	6.41	
B26	7.61	
B27	18	
B28	7.12	
B29	7.44	
B30	6.92	
B31	8.28	
B32	7.02	
B33	9.82	2.14
B34	6.37	2.63
B35	4.89	
B36	10.1	2.64
B37	6.12	
B38	9.75	1.76
B39	6.69	2.14
B40	7.1	
B41	5.09	
B42	6.54	
B43	5.56	
B44	12.7	
B45	7.51	
B46	4.39	
